From publication PMC12339742

B1: PduP encapsulation peptide with its native linker fused to the N-terminus of mNeonGreen [Salmonella enterica] / itself (parent)
chain: MNTSELETLIRTILSEQLTTPAQTPVQPQGKGIFQS

Legend:
itself [1] = variants of: B1; assay: turbidity measurement (self-assembly / condensation), NaCl titration; settings: with itself; value read at the lowest NaCl point (est. ~12-15 mM NaCl); parent: 0.45; read off a plot
itself [2] = variants of: B1; assay: turbidity measurement (self-assembly / condensation), protein concentration titration; settings: with itself; value read at the third-highest protein concentration point (est. ~45 µM); parent: 0.45; read off a plot

| Variant | response (itself [1]) | response (itself [2]) |
| --- | --- | --- |
| chain 1 E7R R11E | 0.51 | 0.5 |
| chain 1 E7D | 0.37 | 0.21 |
| chain 1 I10S | 0.17 |  |
| chain 1 R11K | 0.46 | 0.39 |
| chain 1 R11A | 0.26 | 0.21 |
